According to PMC12416549 (2024):
Residue numbers refer to the chain shown, from its start. Numbers in names are those of the source.

B1: K88Y (designed binder)
chain: SMEEEVEKAAKEYEKKKKEAIEKHLEKLKAKDKEAAERFLKELEEAAKEYAKDEAKTMSEEEAKRRAKKYKEKVLLSELSEEEQKEIYEAEEKLVRTILKYVEEAAK
B2: D53K (designed binder)
chain: B1 chain with D53K, Y88K
B3: F39N (designed binder)
chain: B1 chain with F39N, Y88K
B4: Y70T (designed binder)
chain: B1 chain with Y70T, Y88K
B5: R96P (designed binder)
chain: B1 chain with Y88K, R96P
B6: L28F (designed binder)
chain: B1 chain with L28F, Y88K
B7: E78S (designed binder)
chain: B1 chain with E78S, Y88K
B8: A10E (designed binder)
chain: B1 chain with A10E, Y88K
B9: E22V (designed binder)
chain: B1 chain with E22V, Y88K
B10: Q84E (designed binder)
chain: B1 chain with Q84E, Y88K
B11: K69W (designed binder)
chain: B1 chain with K69W, Y88K
B12: E62P (designed binder)
chain: B1 chain with E62P, Y88K
B13: K31I (designed binder)
chain: B1 chain with K31I, Y88K
B14: Y13N (designed binder)
chain: B1 chain with Y13N, Y88K
B15: A46Y (designed binder)
chain: B1 chain with A46Y, Y88K
B16: K88R (designed binder)
chain: B1 chain with Y88R
B17: E89G (designed binder)
chain: B1 chain with Y88K, E89G
B18: T97Y (designed binder)
chain: B1 chain with Y88K, T97Y
B19: K23V (designed binder)
chain: B1 chain with K23V, Y88K
B20: E78L (designed binder)
chain: B1 chain with E78L, Y88K
B21: E86Q (designed binder)
chain: B1 chain with E86Q, Y88K
B22: E89S (designed binder)
chain: B1 chain with Y88K, E89S
B23: E34H (designed binder)
chain: B1 chain with E34H, Y88K
B24: E37G (designed binder)
chain: B1 chain with E37G, Y88K
B25: L25E (designed binder)
chain: B1 chain with L25E, Y88K
B26: K107G (designed binder)
chain: B1 chain with Y88K, K107G
B27: K100S (designed binder)
chain: B1 chain with Y88K, K100S
B28: E19I (designed binder)
chain: B1 chain with E19I, Y88K
B29: K27D (designed binder)
chain: B1 chain with K27D, Y88K
B30: K8P (designed binder)
chain: B1 chain with K8P, Y88K
B31: E34M (designed binder)
chain: B1 chain with E34M, Y88K
B32: A47E (designed binder)
chain: B1 chain with A47E, Y88K
B33: A90I (designed binder)
chain: B1 chain with Y88K, A90I
B34: Q84F (designed binder)
chain: B1 chain with Q84F, Y88K
B35: K85Q (designed binder)
chain: B1 chain with K85Q, Y88K
B36: K18N (designed binder)
chain: B1 chain with K18N, Y88K
B37: E3R (designed binder)
chain: B1 chain with E3R, Y88K
B38: L28E (designed binder)
chain: B1 chain with L28E, Y88K
B39: S1S (designed binder)
chain: B1 chain with Y88K
B40: E34V (designed binder)
chain: B1 chain with E34V, Y88K
B41: L99N (designed binder)
chain: B1 chain with Y88K, L99N
B42: S77R (designed binder)
chain: B1 chain with S77R, Y88K
B43: E103V (designed binder)
chain: B1 chain with Y88K, E103V
B44: K69L (designed binder)
chain: B1 chain with K69L, Y88K
B45: K18R (designed binder)
chain: B1 chain with K18R, Y88K
B46: K17Q (designed binder)
chain: B1 chain with K17Q, Y88K
B47: E104M (designed binder)
chain: B1 chain with Y88K, E104M
B48: K68M (designed binder)
chain: B1 chain with K68M, Y88K
B49: K69Q (designed binder)
chain: B1 chain with K69Q, Y88K
B50: Y70M (designed binder)
chain: B1 chain with Y70M, Y88K
B51: R38E (designed binder)
chain: B1 chain with R38E, Y88K
B52: L43K (designed binder)
chain: B1 chain with L43K, Y88K
B53: R38I (designed binder)
chain: B1 chain with R38I, Y88K
B54: A36T (designed binder)
chain: B1 chain with A36T, Y88K
B55: Y101G (designed binder)
chain: B1 chain with Y88K, Y101G
B56: K33Y (designed binder)
chain: B1 chain with K33Y, Y88K
B57: R65L (designed binder)
chain: B1 chain with R65L, Y88K
B58: E3S (designed binder)
chain: B1 chain with E3S, Y88K
B59: L76S (designed binder)
chain: B1 chain with L76S, Y88K

Target: T1, TNFR1 (Homo sapiens, UniProt P19438)
T1 chain: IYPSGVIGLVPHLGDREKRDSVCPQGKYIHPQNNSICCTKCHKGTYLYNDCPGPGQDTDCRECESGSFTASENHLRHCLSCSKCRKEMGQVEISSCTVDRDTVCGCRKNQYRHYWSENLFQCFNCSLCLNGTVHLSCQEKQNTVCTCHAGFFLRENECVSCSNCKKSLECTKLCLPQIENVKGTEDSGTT
Test: yeast display SC50

Binder | apparent Kd (screen) [pM]
B1 | 490
B2 | 208
B3 | 3300
B4 | 7070
B5 | 1270
B6 | 446
B7 | 1540
B8 | 1270
B9 | 1160
B10 | 4390
B11 | 11400
B12 | 15200
B13 | 869
B14 | 446
B15 | 490
B16 | 490
B17 | 1400
B18 | 539
B19 | 869
B20 | 790

Binder | apparent Kd (screen) [pM]
B21 | 446
B22 | 490
B23 | 446
B24 | 446
B25 | 2730
B26 | 1050
B27 | 653
B28 | 869
B29 | 956
B30 | 3630
B31 | 446
B32 | 80.2
B33 | 1400
B34 | 5840
B35 | 539
B36 | 539
B37 | 1400
B38 | 539
B39 | 539
B40 | 446

Binder | apparent Kd (screen) [pM]
B41 | 6430
B42 | 1860
B43 | 539
B44 | 446
B45 | 790
B46 | 1160
B47 | 869
B48 | 1270
B49 | 446
B50 | 6430
B51 | 2730
B52 | 869
B53 | 1400
B54 | 1690
B55 | 446
B56 | 593
B57 | 1050
B58 | 2730
B59 | 4830
